Measurements taken from patent US20210253718A1, “FRIZZLED5 PROTEIN-BINDING AGENTS” (Modmab Therapeutics Corporation, priority 2016, published 2021).

T1: FZD10 CRD (Homo sapiens, UniProt Q9ULW2)
T1 construct: 30-156; GPI anchor signal (C); expressed in transfected cells; host or cells: CHO cells, lentiviral pLenti-puro
T1 sequence (Q9ULW2 30-156): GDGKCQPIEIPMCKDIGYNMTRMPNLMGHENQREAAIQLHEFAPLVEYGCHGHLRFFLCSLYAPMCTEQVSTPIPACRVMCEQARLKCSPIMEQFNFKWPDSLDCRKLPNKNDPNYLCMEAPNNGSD

T2: FZD6 CRD (Homo sapiens, UniProt O60353)
T2 construct: S20-P146; GPI anchor signal (C); expressed in transfected cells; host or cells: CHO cells, lentiviral pLenti-puro
T2 sequence (O60353 20-146): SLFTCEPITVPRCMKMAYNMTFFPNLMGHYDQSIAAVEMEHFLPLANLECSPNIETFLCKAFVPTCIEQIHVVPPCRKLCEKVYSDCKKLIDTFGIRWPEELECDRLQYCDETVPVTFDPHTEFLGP

T3: FZD8 CRD (Homo sapiens, UniProt Q9H461)
T3 construct: K31-D155; GPI anchor signal (C); expressed in transfected cells; host or cells: CHO cells, lentiviral pLenti-puro
T3 sequence (Q9H461 31-155): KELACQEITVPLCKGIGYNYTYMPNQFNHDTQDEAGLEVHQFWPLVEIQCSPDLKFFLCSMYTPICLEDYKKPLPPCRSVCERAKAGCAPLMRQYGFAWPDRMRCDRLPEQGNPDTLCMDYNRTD

T4: FZD9 CRD (Homo sapiens, UniProt O00144)
T4 construct: G35-A161; GPI anchor signal (C); expressed in transfected cells; host or cells: CHO cells, lentiviral pLenti-puro
T4 sequence (O00144 35-161): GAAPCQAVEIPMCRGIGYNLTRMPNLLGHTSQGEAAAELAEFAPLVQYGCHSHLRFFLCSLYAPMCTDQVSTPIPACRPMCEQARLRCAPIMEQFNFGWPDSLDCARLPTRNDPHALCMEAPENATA


Experiments:
FZD10 CRD = target: T1, FZD10 CRD; assay: Immunofluorescence of anti-FZD5 Fab binding to CHO cells overexpressing Frizzled CRD; set-up: key: −: no binding; +: very weak binder; ++: weak binder; +++: good binder; ++++: very good binder
In short: (§1)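 First, ten CHO cell lines were made, each lentivirally expressing a different human Frizzled CRD tagged with myc and tethered by GPI. Next, anti-FZD5 Fabs were added to each line. Finally, binding was assessed by immunofluorescence and flow cytometry.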

FZD2 CRD = target: T5, FZD2 CRD (Homo sapiens, UniProt Q14332); assay: as above; set-up: key: −: no binding; +: very weak binder; ++: weak binder; +++: good binder; ++++: very good binder
T5 construct: D35-P161; GPI anchor signal (C); expressed in transfected cells; host or cells: CHO cells, lentiviral pLenti-puro
In short: as §1

FZD6 CRD = target: T2, FZD6 CRD; assay: as above; set-up: key: −: no binding; +: very weak binder; ++: weak binder; +++: good binder; ++++: very good binder
In short: as §1

FZD8 CRD = target: T3, FZD8 CRD; assay: as above; set-up: key: −: no binding; +: very weak binder; ++: weak binder; +++: good binder; ++++: very good binder
In short: as §1

FZD9 CRD = target: T4, FZD9 CRD; assay: as above; set-up: key: −: no binding; +: very weak binder; ++: weak binder; +++: good binder; ++++: very good binder
In short: as §1

ASPC-1 cells [1] = assay: Effect of anti-FZD5 Fabs on proliferation of pancreatic cancer cell lines (percent growth inhibition); assay type: cell-based, human; conditions: Fab 10 μg/ml
Method: (§2) The effect of presently disclosed anti-FZD5 Fabs on proliferation of RNF43 loss-of-function mutant pancreatic cancer cell lines HPAFII, PATU8988S and ASPC-1; and on pancreatic cancer cell line RWP1, was tested at […] and 10 μg/ml.

HPAFII cells = assay: as above; assay type: cell-based, human; conditions: for percent growth inhibition, HPAFII 2 μg/ml: Fab 2 μg/ml; for percent growth inhibition, HPAFII 10 μg/ml: Fab 10 μg/ml
Method: as §2

PATU8988S cells [2] = assay: as above; assay type: cell-based, human; conditions: Fab 10 μg/ml
Method: as §2

RWP1 cells [3] = assay: as above; assay type: cell-based, human; conditions: Fab 10 μg/ml
Method: as §2

PATU8988S cells [4] = assay: as above; assay type: cell-based, human; conditions: Fab 2 μg/ml
ASPC-1 cells [5] = assay: as above; assay type: cell-based, human; conditions: Fab 2 μg/ml
RWP1 cells [6] = assay: as above; assay type: cell-based, human; conditions: Fab 2 μg/ml

Molecule	Immunofluorescence binding, Frizzled CRD overexpressed on CHO cells: FZD10 (FZD10 CRD)	Immunofluorescence binding, Frizzled CRD overexpressed on CHO cells: FZD2 (FZD2 CRD)	Immunofluorescence binding, Frizzled CRD overexpressed on CHO cells: FZD6 (FZD6 CRD)	Immunofluorescence binding, Frizzled CRD overexpressed on CHO cells: FZD8 (FZD8 CRD)	Immunofluorescence binding, Frizzled CRD overexpressed on CHO cells: FZD9 (FZD9 CRD)	percent growth inhibition, ASPC-1 10 μg/ml (ASPC-1 cells [1])	percent growth inhibition, HPAFII 2 μg/ml (HPAFII cells)	percent growth inhibition, HPAFII 10 μg/ml (HPAFII cells)	percent growth inhibition, PATU8988s 10 μg/ml (PATU8988S cells [2])	percent growth inhibition, RWP1 10 μg/ml (RWP1 cells [3])	percent growth inhibition, PATU8988s 2 μg/ml (PATU8988S cells [4])	percent growth inhibition, ASPC-1 2 μg/ml (ASPC-1 cells [5])	percent growth inhibition, RWP1 2 μg/ml (RWP1 cells [6])
Fab-2927: anti-FZD5 Fab with antibody variable region Fv-2927; CDR SEQ ID NOs: 35, 36, 66, 104, 142, 174 (antibody, V domains shown) VH: EVQLVESGGGLVQPGGSLRLSCAASGFNIYYSSMHWVRQAPGKGLEWVASIYPSYGYTSYADSVKGRFTISADTSKNTAYLQMNSLRAEDTAVYYCARYGYYGFDYWGQGTLVTVSS VL: DIQMTQSPSSLSASVGDRVTITCRASQSVSSAVAWYQQKPGKAPKLLIYSASSLYSGVPSRFSGSRSGTDFTLTISSLQPEDFATYYCQQWGSHGYLITFGQGTKVEIK	−	+++	−	+	−	31.00%	6.46%	−7.63%	−23.95%	70.38%	−15.15%	12.47%	46.02%
Fab-2932: anti-FZD5 Fab with antibody variable region Fv-2932; CDR SEQ ID NOs: 35, 36, 71, 108, 147, 153 (antibody, V domains shown) VH: EVQLVESGGGLVQPGGSLRLSCAASGFNISYSYMHWVRQAPGKGLEWVASIYSSYSSTSYADSVKGRFTISADTSKNTAYLQMNSLRAEDTAVYYCARGALDYWGQGTLVTVSS VL: DIQMTQSPSSLSASVGDRVTITCRASQSVSSAVAWYQQKPGKAPKLLIYSASSLYSGVPSRFSGSRSGTDFTLTISSLQPEDFATYYCQQWYGSFALITFGQGTKVEIK	−	−	−	+	−	28.62%	−0.17%	3.21%	−8.85%	25.69%	−14.70%	28.71%	32.22%
Fab-2929: anti-FZD5 Fab with antibody variable region Fv-2929; CDR SEQ ID NOs: 35, 36, 68, 106, 144, 162 (antibody, V domains shown) VH: EVQLVESGGGLVQPGGSLRLSCAASGFNISYYYIHWVRQAPGKGLEWVASIYPSSSSTSYADSVKGRFTISADTSKNTAYLQMNSLRAEDTAVYYCARGAMDYWGQGTLVTVSS VL: DIQMTQSPSSLSASVGDRVTITCRASQSVSSAVAWYQQKPGKAPKLLIYSASSLYSGVPSRFSGSRSGTDFTLTISSLQPEDFATYYCQQWYSSYGLITFGQGTKVEIK	−	−	−	−	−	41.25%	20.20%	33.42%	−27.58%	2.21%	−24.05%	41.68%	0.41%
Fab-2928: anti-FZD5 Fab with antibody variable region Fv-2928; CDR SEQ ID NOs: 35, 36, 67, 105, 143, 175 (antibody, V domains shown) VH: EVQLVESGGGLVQPGGSLRLSCAASGFNISYSSIHWVRQAPGKGLEWVASIYPSYSSTYYADSVKGRFTISADTSKNTAYLQMNSLRAEDTAVYYCARYYAMDYWGQGTLVTVSS VL: DIQMTQSPSSLSASVGDRVTITCRASQSVSSAVAWYQQKPGKAPKLLIYSASSLYSGVPSRFSGSRSGTDFTLTISSLQPEDFATYYCQQAFYYPITFGQGTKVEIK	−	−	−	−	−	6.27%	−17.90%	−25.51%	−30.22%	32.47%	−2.11%	2.33%	−8.19%
Fab-2930: anti-FZD5 Fab with antibody variable region Fv-2930; CDR SEQ ID NOs: 35, 36, 69, 107, 145, 153 (antibody, V domains shown) VH: EVQLVESGGGLVQPGGSLRLSCAASGFNLSYYYIHWVRQAPGKGLEWVASIYPYSGSTSYADSVKGRFTISADTSKNTAYLQMNSLRAEDTAVYYCARGALDYWGQGTLVTVSS VL: DIQMTQSPSSLSASVGDRVTITCRASQSVSSAVAWYQQKPGKAPKLLIYSASSLYSGVPSRFSGSRSGTDFTLTISSLQPEDFATYYCQQWYGPYLITFGQGTKVEIK	−	−	−	+	−	37.33%	−10.77%	7.81%	−13.64%	10.72%	−0.39%	21.31%	17.91%
